This is an account of results in patent US11833164B2, “Methods of treating Fabry disease in patients having a mutation in the GLA gene” (Amicus Therapeutics, Inc., priority 2019, dated 2023).

The experiment concerns mutant form of α-Gal A expressed in HEK-293 cells. Description: HEK assay (GLP HEK / Migalastat Amenability Assay): α-Gal A activity in lysates of transiently transfected HEK-293 cells incubated with or without 10 μM migalastat. Format: cell-based, human. The note with it: for Absolute increase (% WT): 10 μM migalastat versus baseline; for Relative increase: 10 μM migalastat α-Gal A activity relative to baseline; for 10 μM migalastat α-Gal A activity (% WT): 5 days; for 10 μM migalastat α-Gal A activity (% WT) / Baseline α-Gal A activity (% WT): percentage of baseline wild-type α-Gal A activity; for 10 μM migalastat α-Gal A activity (% WT) / Baseline α-Gal A activity (% WT) / Baseline α-Gal A activity / 10 μM migalastat α-Gal A activity: mean ± SEM; for Baseline α-Gal A activity (% WT): absence of migalastat; for Baseline α-Gal A activity / 10 μM migalastat α-Gal A activity: lysates of HEK-293 cells transfected with the mutant form; for Baseline α-Gal A activity: incubated 5 days in the absence of migalastat; for 10 μM migalastat α-Gal A activity: incubated 5 days with 10 μM migalastat. The essentials: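 Activity reported as 4-MU released (nmol/mg/hr), mean±SEM, from lysates of transiently transfected HEK-293 cells expressing mutant α-Gal A, cultured with or without 10 μM migalastat.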

B1: D165A (protein)
chain: MQLRNPELHLGCALALRFLALVSWDIPGARALDNGLARTPTMGWLHWERFMCNLDCQEEPDSCISEKLFMEMAELMVSEGWKDAGYEYLCIDDCWMAPQRDSEGRLQADPQRFPHGIRQLANYVHSKGLKLGIYADVGNKTCAGFPGSFGYYDIDAQTFADWGVALLKFDGCYCDSLENLADGYKHMSLALNRTGRSIVYSCEWPLYMWPFQKPNYTEIRQYCNHWRNFADIDDSWKSIKSILDWTSFNQERIVDVAGPGGWNDPDMLVIGNFGLSWNQQVTQMALWAIMAAPLFMSNDLRHISPQAKALLQDKDVIAINQDPLGKQGYQLRQGDNFEVWERPLSGLAWAVAMINRQEIGGPRSYTIAVASLGKGVACNPACFITQLLPVKRKLGFYEWTSRLRSHINPTGTVLLQLENTMQMSLKDLL
As to B1, the “Absolute increase (% WT)” value stood at 4.4 % WT, the Relative increase was determined as 5.2, the “10 μM migalastat α-Gal A activity (% WT)” value is listed as 5.4 ± 0.3 % WT and the “Baseline α-Gal A activity (% WT)” value came to 1 ± 0.1 % WT. Further, the “Baseline α-Gal A activity” value worked out at 271 ± 30 nmol/mg/h and the “10 μM migalastat α-Gal A activity” value came to 1397 ± 86 nmol/mg/h.

B2: L166M (protein)
chain: MQLRNPELHLGCALALRFLALVSWDIPGARALDNGLARTPTMGWLHWERFMCNLDCQEEPDSCISEKLFMEMAELMVSEGWKDAGYEYLCIDDCWMAPQRDSEGRLQADPQRFPHGIRQLANYVHSKGLKLGIYADVGNKTCAGFPGSFGYYDIDAQTFADWGVDMLKFDGCYCDSLENLADGYKHMSLALNRTGRSIVYSCEWPLYMWPFQKPNYTEIRQYCNHWRNFADIDDSWKSIKSILDWTSFNQERIVDVAGPGGWNDPDMLVIGNFGLSWNQQVTQMALWAIMAAPLFMSNDLRHISPQAKALLQDKDVIAINQDPLGKQGYQLRQGDNFEVWERPLSGLAWAVAMINRQEIGGPRSYTIAVASLGKGVACNPACFITQLLPVKRKLGFYEWTSRLRSHINPTGTVLLQLENTMQMSLKDLL
As for B2, the “Absolute increase (% WT)” value stood at 48.8 % WT, the Relative increase was 1.8, the “10 μM migalastat α-Gal A activity (% WT)” value is listed as 104 ± 7.3 % WT and the “Baseline α-Gal A activity (% WT)” value is reported as 55.2 ± 4.5 % WT. Also, the “Baseline α-Gal A activity” value amounted to 15603 ± 1630 nmol/mg/h and the “10 μM migalastat α-Gal A activity” value turned out to be 27922 ± 1578 nmol/mg/h.

B3: D165E (protein)
chain: MQLRNPELHLGCALALRFLALVSWDIPGARALDNGLARTPTMGWLHWERFMCNLDCQEEPDSCISEKLFMEMAELMVSEGWKDAGYEYLCIDDCWMAPQRDSEGRLQADPQRFPHGIRQLANYVHSKGLKLGIYADVGNKTCAGFPGSFGYYDIDAQTFADWGVELLKFDGCYCDSLENLADGYKHMSLALNRTGRSIVYSCEWPLYMWPFQKPNYTEIRQYCNHWRNFADIDDSWKSIKSILDWTSFNQERIVDVAGPGGWNDPDMLVIGNFGLSWNQQVTQMALWAIMAAPLFMSNDLRHISPQAKALLQDKDVIAINQDPLGKQGYQLRQGDNFEVWERPLSGLAWAVAMINRQEIGGPRSYTIAVASLGKGVACNPACFITQLLPVKRKLGFYEWTSRLRSHINPTGTVLLQLENTMQMSLKDLL
For B3, the “Absolute increase (% WT)” value stood at 18.4 % WT, the Relative increase was 4.4, the “10 μM migalastat α-Gal A activity (% WT)” value turned out to be 23.8 ± 1.6 % WT and the “Baseline α-Gal A activity (% WT)” value stood at 5.4 ± 0.2 % WT. Also, the “Baseline α-Gal A activity” value is 1442 ± 43 nmol/mg/h and the “10 μM migalastat α-Gal A activity” value was determined as 6279 ± 288 nmol/mg/h.
